Patent publication US20100173430A1 (KOREAN RESEARCH INSTITUTE OF BIOSCIENCE AND BIOTECHNOLOGY, published 2010)

Key:
[1] = molecular target: T1, anti-human Kallikrein 3/PSA antibody (R&D systems); assay: SPR (BIAcore); protein G variant layer on gold thin film, anti-PSA antibody 0.5 ug/ml injected
T1 construct: also called antibody against PSA
Description: Then, antigens (Recombinant Human kallikrein 3/PSA, 0.5 μg/ml) were reacted with the antibodies. As a result, the change in the surface plasmon resonance signals of the untagged recombinant protein increased by 7 RU, the same change of the recombinant protein tagged with one cysteine residue increased by 49 RU, the same change of the recombinant protein tagged with two cysteine residues increased by 41 RU, and the same change of the recombinant protein tagged with three cysteine residues increased by 74 RU.
A gold thin film chip was treated with a mixed solution (65° C.) of 95% sulfuric acid and 30% aqueous hydrogen peroxide (volume ratio 3:1) for 30 minutes, and then the chip was washed sequentially with double distilled water, ethanol and double distilled water. Subsequently, the chip was dried with nitrogen gas and mounted on a BIA-core surface plasmon resonance sensor. 150 μl each of 200 μg/ml solutions of recombinant proteins tagged with one, two and three cysteine residues, respectively, and of an untagged recombinant protein (control) were introduced to the gold thin film surface of the mounted chip at a flow rate of 5 μl/min, so as to immobilize the proteins. After reacting the gold thin film surface and the aforementioned proteins, 100 μl of BSA (3 mg/ml) was introduced at a flow rate of 5 μl/min to prevent non-specific reactions. Subsequently, 100 μl of an antibody (0.5 μg/ml, anti-human Kallikrein 3/PSA antibody, R&D systems) was introduced at a flow rate of 5 μl/min, and the biosensor with immobilized antibody and 50 μl of an antigen (0.5 μg/ml, Recombinant Human Kallikrein 3/PSA) were allowed to react. Then, changes in the plasmon resonance signal was detected (FIG. 8).

[2] = molecular target: T2, human IgG (Sigma) (human); assay: SPR (BIAcore); protein G variant layer on gold thin film, human IgG 100 ug/ml injected
T2 construct: also called human antibody; antibody (100 µg/ml, human IgG, Sigma)
Description: A gold thin film chip was treated with a mixed solution (65° C.) of 95% sulfuric acid and 30% aqueous hydrogen peroxide (volume ratio 3:1) for 30 minutes, and then the chip was washed sequentially with double distilled water, ethanol and double distilled water. Subsequently, the chip was dried with nitrogen gas and mounted on a BIA-core surface plasmon resonance sensor. 150 μl each of 200 μg/ml solutions of recombinant proteins tagged with one, two and three cysteine residues, respectively, and of an untagged recombinant protein were introduced to the gold thin film surface of the mounted chip at a flow rate of 5 μl/min, so as to immobilize the proteins. After reacting the gold thin film surface and the aforementioned proteins, 100 μl of BSA (3 mg/ml) was introduced at a flow rate of 5 μl/min to prevent non-specific reactions. Subsequently, 100 μl of an antibody (100 μg/ml, human IgG, Sigma) was introduced at a flow rate of 5 μl/min to produce a biosensor in which protein G variant and the antibody were immobilized on a gold thin film, and the changes in the plasmon resonance signals were measured (FIG. 5).

[3] = molecular target: T3, streptavidin-Cy3 from Streptomyces avidinii (S6420 SIGMA-ALDRICH) (Streptomyces avidinii, UniProt P22629 37-163, limits assumed, Cy3 label); assay: microarray on maleimide glass carrying the protein G variant, fluorescence scanner
T3 construct: Control protein of the microarray experiment; also called control
Description: A glass surface was immersed in a piranha solution (sulfuric acid:hydrogen peroxide, 3:1 v/v) and allowed to react in an oven at 90° C. for 20 minutes. After the reaction, the glass surface was washed with water and ethanol, and then was immersed in ethanol containing 1% APTS ((3-Aminopropyl)trimethoxysilane, 09326, SIGMA-ALDRICH) for 15 to 20 minutes to react, so as to provide an aminated surface. After completion of the reaction, the glass surface was washed with ethanol, and subsequently heated in an oven at 100° C. until the time of use. The prepared aminated surface was immersed in a 10 mM solution of BMPS (N-[b-Maleimidopropyloxy]succinimide ester, 22298, PIERCE, USA) dissolved in DMSO (dimethyl sulfoxide, D2650, SIGMA-ALDRICH) to react for about 30 minutes. The maleimide groups provided on the final glass surface, which groups would be covalently bonded to SH groups, were reacted with Streptococcal protein G variants tagged with one, two or three cysteine residues on the glass surface to immobilize the protein. On the surface where a series of Streptococcal protein G variants were immobilized, an antibody labeled with a fluorescent labeling substance, monoclonal anti-biotin Cy3 (C5585, SIGMA-ALDRICH), and a control, streptavidin-Cy3 (streptavidin-Cy3 from Streptomyces avidinii, S6420 SIGMA-ALDRICH) were arranged into an array using a microarrayer, and then the degree of specific protein binding and the effect of non-specific binding were measured using a fluorescence scanner. As a result, no fluorescent signal of Streptavidin-Cy3 (1 mg/ml) was detected, and since the fluorescent signal increased with an increase in the concentration of the antibody, Monoclonal anti-biotin Cy3, it was confirmed that the antibody reactions with Streptococcal protein G variants tagged with one, two and three cysteine residues were specifically achieved. Also, when the antibody was reacted after allowing the Streptococcal protein G variants to react at the same concentration, the reaction occurred at a low concentration of the antibody with a high binding power. […]

| Binder | change in surface plasmon resonance signal [1] [RU] | change in surface plasmon resonance signal [2] [RU] | fold increase of SPR signal change against the untagged recombinant protein [2] [times] | binding result [3] |
| --- | --- | --- | --- | --- |
| Streptococcal protein G variant tagged with three cysteine residues at the N-terminus (other, Immobilised by its thiol groups on gold film, gold nano-particles or maleimide glass; also called cys3-G; protein produced from plasmid pET-cys3-L-proteinG) MCCCDDDDKLKGETTTEAVDAATAEKVFKQYANDNGVDGEWTYDDATKTFTVTETYKLVIDGKTLKGETTTKAVDAETAEKAFKQYADDDGVDGVWTYDDATKTFTVTEHHHHHH | 491 | 4800 | ~4.8 | no binding (tested: 1 mg/ml) |
| Streptococcal protein G variant tagged with one cysteine residue at the N-terminus (other, Immobilised by its thiol group on gold film, gold nano-particles or maleimide glass; also called cys1-G; protein produced from plasmid pET-cys1-L-proteinG) MCDDDDKLKGETTTEAVDAATAEKVFKQYANDNGVDGEWTYDDATKTFTVTETYKLVIDGKTLKGETTTKAVDAETAEKAFKQYADDDGVDGVWTYDDATKTFTVTEHHHHHH | 472 | 4000 | ~4 | no binding (tested: 1 mg/ml) |
| Streptococcal protein G variant tagged with two cysteine residues at the N-terminus (other, Immobilised by its thiol groups on gold film, gold nano-particles or maleimide glass; also called cys2-G; protein produced from plasmid pET-cys2-L-proteinG) MCCDDDDKLKGETTTEAVDAATAEKVFKQYANDNGVDGEWTYDDATKTFTVTETYKLVIDGKTLKGETTTKAVDAETAEKAFKQYADDDGVDGVWTYDDATKTFTVTEHHHHHH | 376 | 3200 | ~3.2 | no binding (tested: 1 mg/ml) |
